Assay: yeast display, Sf9 membrane polyspecificity reagent, FACS + sequencing; frameworks hold sequencing errors
Outline: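 Nanobodies came from a synthetic yeast display library in Saccharomyces cerevisiae BJ5465, induced with galactose for 36–48 hours and stained for 1 hour at 4 °C with 10% biotinylated, detergent-solubilized Sf9 membrane reagent. Cells were enriched on streptavidin microbeads and then FACS-sorted, with low and high (top ~1%) gates set on anti-HA fluorescence for expression and streptavidin fluorescence for reagent binding. Each polyreactivity label reflects the gate a clone came from. Genes were amplified by colony PCR, sequenced by MiSeq 2 × 250 and filtered by CDR length.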

For “QVQLVESGGGLVQAGGSLRLTCAASGFTFYRNTMGWYRQAPGKERELVAAITQRGGSTYYADSVKGRFTISRDNAKNTVYLQMNSLKPEDTAVYYCNRDVKVLYASSHSPYGYDHWGQGTQVTVSS”, which “polyreactivity (PSR sort gate)” value is on record?
Its value is “low polyreactivity”.

Which “polyreactivity (PSR sort gate)” value does the source give for “QVQLVESGGGLVQAGGSLRLSCAASGFTFRYYAMGWYRQAPGKERELVAAISWRGGRTYYADSVKGRFTISRDNAKNTVYIQMNSLKPEDTAVYYCAALRERQTRGNYWGQGTQVTVSS” here?
The value was “high polyreactivity”.

Which “polyreactivity (PSR sort gate)” value does the source give for “QVQLVESGGGLVQAGGILRLSCAASGIILYINAMGWYRQAPGKERELVAAITSDGSTNYADSVKGRITISRDNAKYTVYLQMNSLKPEDTAVYYCAVDLPWGTGVSQYPESDYWGQGTQVTVSS” here?
The value was “low polyreactivity”.

With “QVQLVESGGGLVQSGGILRLSCAASGGTFYANAMGWYRQAPGKERELVAAITSGGSTNYADSVKRRFTISRDNAKNTVSLQMNSLKPEDTAVYYCNASAQRRYWHSYFRRYDYWGQGTQVTVSS” as the sequence, how does the “polyreactivity (PSR sort gate)” value read?
The value was “low polyreactivity”.

For “QVQLVESGGGLVQAGGSLRLSCAASGSTFWLYAMGWYREAPGKERELVATISERGGSTYYADSVKGRFTISRDYAKNTVYFQMNSLKPEDTAVYYCAADQFHYPRGRRYDYWGQGTQVTVSS”, which “polyreactivity (PSR sort gate)” value is on record?
Its value is “low polyreactivity”.

For “QVQLVESGGGLVQAGGSLRLSCAASGSIFAYYAMGWYRQAPGKERELVAAISSGGSTNYADSVKGRFTISRDNAKNPVYLQMNSLKPEDTAVYDCAKRSYYGLTYYSWGQGTQVTVSS”, which “polyreactivity (PSR sort gate)” value is on record?
The value was “low polyreactivity”.

For “QVQLVESGVGLVQAGGSLSLSCAASGITFPYVMGWYRQAPGKERELVAAISRTGTSTYYADSVKGRFTSSRDNAKNNVYLEMNTLKPEDTAVYYCAARTQTQVYPAYGYWGQGTQVTVSS”, which “polyreactivity (PSR sort gate)” value is on record?
The value was “high polyreactivity”.

Which “polyreactivity (PSR sort gate)” value does the source give for “QVQLVESGGGLVQAGGSLRLSCAASGSIFIYYAMGWYRQAPGKERELVAGININGGSTYYADSVKGRFTISRDNAKNTVYLQMNSLKPEDTAVYYCAADELWWTYWDFVTNWYQRDYWGQGTQVTVSS” here?
Its value is “low polyreactivity”.

Which “polyreactivity (PSR sort gate)” value does the source give for “QVQLVESGGGLVQAGGSLRLTCAASGSTFADYAMGWYRQAPGKERELVAAITGDGGNTYYADSVKGRFTISRDNAKNTVYLQMNSLKPEDTAVYYCAAEHETGAYYYWGLGTQVTVSS” here?
Its value is “high polyreactivity”.

With “QVQLVESGGGLVQAGGSLRLSCAASGYIFEEYDMGWYRQAPGKERELVAAISASGGSTYYADSVKGRFTISRDNAKNTVYLQMNSLKPEDTAVYYCAADAVREVYGSWDDYWGQGTQVTVSS” as the sequence, how does the “polyreactivity (PSR sort gate)” value read?
The value was “low polyreactivity”.

For “QVQLVESGGGLVQAGGSLRLSCAASGRTFKYNVMGWYRPAPGKERELVAAISSGGGTNYADSVKGRFTISRDNAKKTVYFQINSLKPEDTAVYYCAAKYAWRLLEMYYWGQGTQVTVSS”, which “polyreactivity (PSR sort gate)” value is on record?
The value was “low polyreactivity”.

Which “polyreactivity (PSR sort gate)” value does the source give for “QVHLVESGGGLVQAGGSLRLSCAASGRNFGYYARGWYRQAPVKERELVAAIDSSGGDTYYADSVKGRFTISRDNAKNSVYVQMNSLKPEDTAVFYCAAEYVAQAGYGVDYWGQGTEVTVSS” here?
Its value is “low polyreactivity”.

For “QVQLVESGGGLVQAGGSLRLSCADSGSTFVSNTMGWYRQAPGKERELVAAISSSGGSTYYADSVKGRFSISRDNAKNTVYLQMNSLKPEDTAVYYCAAYYRAYRRDYYWGQGTQVTVSS”, which “polyreactivity (PSR sort gate)” value is on record?
The value was “high polyreactivity”.

With “QVQLVESGGGLVQAGGSLRLSCAASGFTFKYYAMGWYRQAPGKERELVAAISSGATTYYADSVKGRFTISRDNAKNTVYLQMNSLKPEDTAVYYCNANRFRRYDWGQGTLVTVSS” as the sequence, how does the “polyreactivity (PSR sort gate)” value read?
The value was “high polyreactivity”.

Which “polyreactivity (PSR sort gate)” value does the source give for “PVQLVESGGGLVQAGGSLRLSCAASGIIFYDYAMGWYRQAPGKERELGATITSGGSTNYADSVKGRFTISRDNAKNTVYLQLNSLKPEDTAVYYCAAGRGLILGGVYGYDYWGQGTQVTVSS” here?
Its value is “low polyreactivity”.

With “QVQLVESGGGLVQAGGSLRLSCAASGSIQYYAMGWYRHAPGKERELVAAIRFSGGRTYYADSVKGRFTISRDNAKITVYLQMHSLKPEHTAVYYCAAYRSPRRSGAPSQGKFDYCGQGTQVTVSS” as the sequence, how does the “polyreactivity (PSR sort gate)” value read?
The value was “low polyreactivity”.

For “QVQLVESGGGLVQAGGSLRLSCAASGYIFRVYAMGWYRQAPGKERELVAAISSGGSTYYADSVKGRFTISRDNAKNTVYLQMNSLKPEDTAVYYCAKAGLALYAFRDDYWGQGTQVTVSS”, which “polyreactivity (PSR sort gate)” value is on record?
The value was “low polyreactivity”.

For “QVQLVESGGGLDQAGGSLRLSCAASGLTFQLYTMGWYRQAHGKERELVAAISRSGTRTYYADSVKGRFTISLDNAKNTVYLQMNSLKPEDTAVYYCAARTDGYRNNYWGQGTQVTVSS”, which “polyreactivity (PSR sort gate)” value is on record?
Its value is “high polyreactivity”.

For “QVQLVESGGGLFRAGGSLRLICAASGITFYGYAMGWYRQAPGKERELVAAITWSGGRTYYADSVKGRFTISRDNAKNTVYLQMNSMKPEDTAVYYCARRTWHSVGYWGQGTQVTVSS”, which “polyreactivity (PSR sort gate)” value is on record?
Its value is “high polyreactivity”.

With “QVQLVESGGGLVQAGGSLRLSCAASGYTIISYGMGWYTQAPGKERELVAAISSGDRTNYADSVKGRFTISRDNAKNTVYLQMNSLKPEDTAVYYCNADRASSSVGYSDEFGHDSWGQGTQVTVSS” as the sequence, how does the “polyreactivity (PSR sort gate)” value read?
The value was “low polyreactivity”.

For “QVQIVESGGGLVQAGGSLRLSCAASGSIFRGYAKGWYRQAPGKERELVAAITQRAGSTYYADSVKGRFTISRDNAKNTVYLQMNSLKPEDTAVYYCAADVFYVFLHRVWYNYWGQGTQVTVSS”, which “polyreactivity (PSR sort gate)” value is on record?
The value was “low polyreactivity”.

Which “polyreactivity (PSR sort gate)” value does the source give for “QVQLVESVGGLVQAGGSLRLSCASSGSIFEGSAMGRYRQAPGKEMELVASISSGGSTNYADSVKGRFTISRDNAKNTVYLQMNSLKPEDTAVYYCAAEWVWYKWEFEYWGQGTKVTVSS” here?
The value was “high polyreactivity”.

From the nanobody polyreactivity screen of Harvey et al. (2022)
